Experiment [1] deals with T1, recombinant human TNFα (human, UniProt P01375 77-233, biotinylated (2:1 molar ratio of biotin to rhTNFα) in the SPR assays; 125I-labeled in the receptor binding assays).
T1 construct: also called rhTNFα; rhTNF
Put plainly: SPR (BIAcore), scFv over biotinylated rhTNFα. In general terms: Surface plasmon resonance follows binding to a sensor surface in real time, without labels.

For experiment [2], the target named is T1, recombinant human TNFα. The experiment is described as follows: SPR (BIAcore), scFv over biotinylated rhTNFα. The source holds these as a separate data set.

For orientation: koff means a measure of how fast the partners let go of each other.

T1 sequence (P01375 77-233 limits assumed): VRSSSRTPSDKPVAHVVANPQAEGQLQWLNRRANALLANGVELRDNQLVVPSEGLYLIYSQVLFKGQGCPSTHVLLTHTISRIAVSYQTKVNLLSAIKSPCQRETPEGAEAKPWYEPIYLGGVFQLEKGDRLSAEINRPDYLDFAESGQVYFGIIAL

B1: 3C-H2 / LOE7 scFv (scFv, V domains shown)
VH: QVQLVESGGGLVQPGRSLRLSCAASGFTFDDYAMHWVRQAPGKGLDWVSAITWNSGHIDYADSVEGRFAVSRDNAKNALYLQMNSLRPEDTAVYYCAKASYLSTASSLEYWGQGTLVTVSS
VL: not shown
B1: the koff with recombinant human TNFα [1] turned out to be 0.0015 s⁻¹. For the same molecule, the “fold faster off rate than with the D2E7 VH CDR3” value with recombinant human TNFα [2] turned out to be 3 fold.

B2: 2SD4 VH / VLLOE5 scFv (scFv, V domains shown)
VH: QVQLVESGGGLVQPGRSLRLSCAASGFTFDDYAMHWVRQAPGKGLDWVSAITWNSGHIDYADSVEGRFAVSRDNAKNALYLQMNSLRPEDTAVYYCTKASYLSTSSSLDNWGQGTLVTVSS
VL: DIQMTQSPSSLSASIGDRVTITCRASQGIRNYLAWYQQKPGKAPKLLIYAASTLQSGVPSRFSGSGSGTDFTLTISSLQPEDVATYYCQKYNSAPYYFGQGTKVEIK
As to B2, the koff with recombinant human TNFα [1] worked out at 0.0116 s⁻¹.

The values are drawn from patent publication US20130115224A1 (published 2013).
